Measured values taken from patent US8795627B2, “Treatment of liver disorders by administration of RAP conjugates” (Raptor Pharmaceuticals Inc., priority 2007, dated 2014).
Bridge positions count the residues as written; N and C are the ends. * marks the point of attachment. Biotin = O=C1N[C@H]2[C@H](CS[C@H]2CCCCC(=O)*)N1

Tests used:
[1] = test system: hepatocellular carcinoma; conditions: systemic chemotherapy, HCC patients; cited from earlier work
[2] = molecular target: T1, recombinant human LRP1 cluster II (Homo sapiens, UniProt Q07954); experiment: Solid phase binding assay, affinity for LRP1 cluster II
T1 construct: R&D Systems, amino acids 786-1165, with C-terminal Fc tag; purchased R&D Systems
T1 sequence (Q07954 805-1184): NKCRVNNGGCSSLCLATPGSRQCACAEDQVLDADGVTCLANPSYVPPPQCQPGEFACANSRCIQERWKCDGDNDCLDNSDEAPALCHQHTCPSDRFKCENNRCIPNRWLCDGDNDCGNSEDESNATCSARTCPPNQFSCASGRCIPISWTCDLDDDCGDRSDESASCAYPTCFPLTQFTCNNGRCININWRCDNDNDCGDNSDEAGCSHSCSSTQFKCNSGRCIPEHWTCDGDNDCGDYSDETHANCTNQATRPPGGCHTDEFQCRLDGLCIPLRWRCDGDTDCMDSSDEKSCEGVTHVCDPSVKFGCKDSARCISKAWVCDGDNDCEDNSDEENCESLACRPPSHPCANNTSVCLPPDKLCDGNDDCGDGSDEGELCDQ
Source text: (§1) Control wells contained no added inhibitor. […] Excess HRP conjugate was removed and wells washed. Color was developed using TMB reagents (BioRad, Hercules, Calif.).

[3] = rat, in vivo, iv; cited from earlier work
[4] = in vivo, iv; cited from earlier work
[5] = molecular target: T2, LRP1-C2 (Homo sapiens, UniProt Q07954); experiment: Inhibition of RAP d3 binding to LRP1-C2, solid phase assay (streptavidin multimerization); parameters: R&D Systems, amino acids 786-1165, with C-terminal Fc tag; purchased R&D Systems
T2 sequence (Q07954 805-1184): T1 sequence (Q07954 805-1184)
Source text: as §1

[6] = molecular target: T2, LRP1-C2; experiment: Inhibition of RAP d3 binding to LRP1-C2, solid phase assay (anti-biotin antibody, preincubation with receptor); conditions: fit parameter of inhibition curve, 2 nM RAP d3
Experimental: Briefly, recombinant human LRP1 cluster II (R&D Systems, amino acids 786-1165, with C-terminal Fc tag, 1 μg) was used to coat Nunc MAXISORP™ 96-well plates in TBS pH 8 supplemented with 5 mM CaCl2 (TBSC) overnight at 4° C. Wells were washed with TBSC and blocked with TBSC containing 2% BSA.
Since the ligand binding competence of CR pairs requires calcium, identical binding reactions were done in the presence of 50 mM EDTA to provide a measure of non-specific binding. Control wells contained no added inhibitor. Wells were washed with TBS supplemented with 5 mM CaCl2 and 0.05% Tween-20. Bound ligand was detected with either anti-5-peptide-HRP conjugate (Abcam) or anti-α-2-macroglobulin-HRP conjugate (Abcam). Excess HRP conjugate was removed and wells washed. Color was developed using TMB reagents (BioRad, Hercules, Calif.). Absorption at 450 nm was measured with a microplate spectrophotometer (Molecular Devices, Palo Alto).
The same procedure was performed for the controls; peptide alone, antibody alone and full-length RAP.

[7] = test system: wild-type CHO-K1 cells; experiment: MTT cell viability after toxin delivery, wild-type CHO-K1; conditions: 48 hours
Experimental: (§2) In order to determine whether a RAP peptide conjugated to a cytotoxic agent could effectively deliver the toxin to the cell and initiate cell death, an in vitro assay was used to assess delivery of toxin via the RAP-LRP1 binding and internalization pathway.
(§3) Wild-type and LRP1-deficient CHO-K1 cells were grown in BioWhittaker Ultra-CHO supplemented with 5% fetal bovine serum. Cells were seeded in 12-well plates 48 hours prior to the experiment. […] The mixture was diluted into growth media to 100 nM and added to wells in duplicate. […] Cells were incubated for 48 hours at 37° C., 5% CO2 in a humidified chamber. Cell viability for each treatment condition was determined with an MTT assay kit (Invitrogen, San Diego).

[8] = test system: LRP1-deficient CHO-K1 cells; experiment: MTT cell viability after toxin delivery, LRP1-deficient CHO-K1; conditions: LRP-deficient CHO-K1, 1 μM, 48 hours
Experimental: as §2, §3

[9] = in vivo
[10] = in vivo, iv; cited from earlier work; remark: listed apart in the source

For `COc1cccc2c1C(=O)c1c(O)c3c(c(O)c1C2=O)C[C@@](O)(C(=O)CO)C[C@@H]3O[C@H]1C[C@H](N)[C@H](O)[C@H](C)O1` [adriamycin], the response rates [1] is given as 15-20%.

Compound “Biotin-GGSGGCEAKIEKHNHYQKQLEIAHEKLRHAESVGDGERVSRSREKHALLEGRTKELGYTVKKHGC (disulfide 6-65 (inferred)) [mRAP-14c]” has a Kd [2] of about 21 nM.

With “Biotin-GGSGGCGKHFEAKIEKHNHYQKQLEIAHEKLRHAESVGDGERVSRSREKHALLEGRTKELGYTVKKHLQDGC (disulfide 6-72 (inferred)) [mRAP-8c]” the Kd [2] was about 4 nM.

In the case of “RAP: mature full-length receptor-associated protein, 323 amino acids (SEQ ID NO: 1); Tables 3 and 4, b198”, the “accumulation in heart, brain, muscle or kidney” value [3] is given as < 1 % of injected dose, the circulating half-life [3] is given as “less than a minute” and the toxicity [4] is given as “no measurable toxicity”. The “fold better EC50 than peptide assembled on streptavidin” value [5] was “about 10 fold”, the Maximum binding ([5]; fit parameter of inhibition curve, 2 nM RAP d3) was 0.29 and the Maximum binding [6] was 0.74.

In the case of Saporin [reference compound], the “loss of viable cells” value ([7]; wild-type CHO-K1, 1 μM) is reported as “about 55%” and the “loss of viable cells” value [8] is reported as about 35%.

In the case of “biotin-GGSGGCGFREELKHFEAKIEKHNHYQKQLEIAHEKLRHAESVGDGERVSRS REKHALLEGRTKELGYTVKKHLQDLSGGC [mini-RAPc]”, the “effect on cell survival” value ([7]; 100 nM, cell type not specified (wild-type and LRP1-deficient CHO-K1 tested)) is reported as “no significant effect on cell survival”.

In the case of “streptavidin: streptavidin alone, control (35S-labeled in bio-distribution studies) [reference compound]”, the “uptake in the woodchuck liver, mean” value [9] is given as 435 PSL/mm^2, the tissue accumulation [10] is given as “accumulate in kidney, but not significantly in liver” and the “inhibitory effect on RAP d3 binding” value ([5]; in words) is given as “no inhibitory effect”.
